Source: patent US20190262327A1, “COMBINATION OF A BACE INHIBITOR AND AN ANTIBODY OR ANTIGEN-BINDING FRAGMENT FOR THE TREATMENT OF A DISORDER ASSOCIATED WITH THE ACCUMULATION OF AMYLOID BETA” (ASTRAZENECA AB, priority 2016, published 2019)

Tests used:
[1] = target: T1, human Amyloid beta 1-42 peptide (Homo sapiens, UniProt P05067); test: Surface Plasmon Resonance binding kinetics of IgGs (BIAcore T-100); settings: IgG1-TM captured on protein G; 1:1 Langmuir fit
T1 construct: biotinylated human Amyloid beta 1-42 peptide (rpeptide, USA; cat: A1117); purchased rPeptide, USA A1117; host or cells: synthetic peptide
T1 sequence (P05067 672-713): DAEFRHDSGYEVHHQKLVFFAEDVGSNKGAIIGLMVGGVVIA
Experimental: Surface Plasmon Resonance was used to analyse the binding kinetics of the affinity-optimized IgGs (section 1.8) and their germlined counterparts (section 1.9). Briefly, the BIAcore T-100 (GE Healthcare, UK) biosensor instrument was used to assess the kinetic parameters of the interaction between each test IgG and synthetically-produced human Amyloid beta 1-42 peptide. These experiments were performed essentially as described by Karsson et al. (Karlsson et al., 1991).
The affinity of binding between each test IgG and human Amyloid beta 1-42 was estimated using assays in which each antibody was non-covalently captured by a protein G surface that was itself amine linked to a proprietary CM5 chip. The chip surface was regenerated between cycles by paired 40 second injections of 10 mM Glycine pH 2.0 to remove ligand and bound antibody. The test antibody was then reapplied for each peptide injection.
A series of dilutions of synthetic human Amyloid beta 1-42 peptide (0.063-1024 nM) were sequentially passed over the antibody surface for a sufficient amount of time to observe sensorgrams that could be fitted to an appropriate binding model with confidence. […]
The validity of the data was assessed using the calculated Chi^2 value, with an acceptable value being under 2 RU^2. […]

[2] = tested on: Amyloid beta 1-40 peptide; test: Total Amyloid beta 1-40 peptide in rat brain homogenates (ELISA); type: in vivo; settings: Sprague-Dawley rats, 0.25-10 mg/kg weekly over 14 days
Experimental: […] Dosing solutions were made just before dosing. Animals were anaesthetized at the time indicated and cerebrospinal fluid (CSF) was aspirated from the cistema magna. CSF samples were centrifuged for 10 minutes at approximately 3000× g at 4° C. within 20 minutes of sampling to remove cells or debris. Samples were then frozen on dry ice and stored at −70° C. for subsequent analysis.
Animals were sacrificed by decapitation, brain tissue was dissected and Amyloid beta peptides were extracted from brain tissue in diethylamine (DEA; Fluka. Sigma. UK; cat: 31729). Briefly, frozen brain tissue was homogenized in 0.2% DEA and 50 mM NaCl (Merck, USA: cat: 1.06404.1000). Brain homogenates were ultracentrifuged at 133,000×g, for 1 hour. Recovered supernatants were neutralized to pH 8.0 with 2 M Tris-HCl (TRIZMA®-hydrochloride; Sigma, UK; cat: 93363) and stored at −70° C. until analysis. Animal experimentations were performed in accordance with relevant guidelines and regulations provided by the Swedish Board of Agriculture. […]
Measurement of total Amyloid beta 1-40 peptide in rat brain homogenates was performed using the mouse Amyloid beta (1-40) colorimetric ELISA kit (Invitrogen, UK; cat: KMB3481). […] To stop the reaction, 100 μl of Stop Solution was added to each well and the plate was read within 2 hours at an absorbance of 450 nm. […]

[3] = tested on: human Abeta peptides (Abeta 1-42, Abeta 1-43, Abeta 1-16, Abeta 12-28, Abeta 17-42, Abeta pyro-3-42, Abeta pyro-11-42); test: HTRF competition binding experiments with panel of Abeta peptides; settings: competitor 10 uM down to 0.17 nM; antibody 0.5 nM
Experimental: The specificity of Abet0380-GL IgG1-TM was examined in competition binding experiments. In brief Abet0380-GL IgG1-TM (0.5 nM) was incubated (1 hr at room temperature) with a range of different concentrations (10 uM down to 0.17 nM) of a panel of full length, truncate and pyro human Abeta peptides (Abeta 1-42, Abeta 1-43, Abeta 1-16, Abeta 12-28, Abeta 17-42, Abeta pyro-3-42, or Abeta pyro-11-42).
Following the incubation between Abet0380-GL IgG1-TM and the Abeta peptides N-terminal biotin Abeta 1-42 (1.5 nM) was added followed by a europium cryptate labelled anti-human Fc antibody (0.8 nM) (CisBio Cat. No. 61HFCKLB) and streptavidin-XL^entl (5 nM) (CisBio Cat. No. 611SAXLB). The assay was then incubated for a further 2 hrs at room temperature before reading on an Envision plate reader (PerkinElmer) using a standard homogeneous time resolved fluorescence (HTRF) read protocol. In the absence of competition, the interaction of N-terminal biotin Abeta 1-42 with Abet0380-GL IgG1-TM (in complex with streptavidin-XL^entl and europium cryptate labelled anti-human Fc antibody, respectively) could then be measured via time resolved fluorescence resonance energy transfer (TR-FRET) due to the proximity of the europium cryptate donor and XL^665 acceptor fluorophores. […]

B1: Abet0380-GL IgG1-TM: germlined Abet0380; VH SEQ ID NO: 524, VL SEQ ID NO: 533; human IgG1 triple mutant format (antibody, listed as Homo sapiens, V domains shown)
VH: EVQLLESGGGLVQPGGSLRLSCAASMGNFNYQTMWWVRQAPGKGLEWVSVIGKTNENIAYADSVKGRFTISRDNSKNTLYLQMNSLRAEDTAVYYCAREWMDHSRPYYYYGMDVWGQGTLVTVSS
VL: SYELTQPPSVSVSPGQTASITCSGHNLEDKFASWYQQKPGQSPVLVIYRDDKRPSGIPERFSASNSGHTATLTISGTQAMDEADYYCSSQDTVTRVFGGGTKLTVL
modifications: human IgG1 triple mutant constant region; /note=“Abet0380-GL”
notes: germlined Abet0380; human IgG1 triple mutant format
[1]
  association rate constant (ka): 952000 M⁻¹ s⁻¹
  dissociation rate constant (kd): 0.000307 s⁻¹
[2]
  effect on total Amyloid beta 1-40 peptide in brain tissue: unaffected
[3]
  inhibition of antibody : N-terminal Biotin Abeta 1-42 binding by Abeta 1-16 or Abeta 12-28: No inhibition
